Measurements published in the supplement of paper PMC7877785.
± gives the uncertainty stated by the source.

Assay: self-splicing fitness, log relative to wild type (ln ratio); higher = more splicing; Tetrahymena group I intron in knt gene, E. coli kanamycin selection, DiMSum; sequences stand for … in CUCUCU…GGAGGGAAAAGUUAUCAGGCAUGCACCUGGUAGCUAGUCUUUAAACCAAUAGAUUGCAUCGGUUUAAAAGGCAAGACCGUCAAAUUGCGGGAAAGGGGUCAACAGCCGUUCAGUACCAAGUCUCAGGGGAAACUUUGAGAUGGCCUUGCAAAGGGUAUGGUAAUAAGCUGACGGACAUGGUCCUAACCACGCAGCCAAGUCCUAAGUCAACAGAUCUUCUGUUGAUAUGGAUGCAGUUCACAGACUAAAUGUCGGUCGGGGAAGAUGUAUUCUUCUCAUAAGAUAUAGUCGGACCUCUCCUUAAUGGGAGCUAGCGGAUGAAGUGAUGCAACACUGGAGCCGCUGGGAACUAAUUUGUAUGCGAAAGUAUAUUGAUUAGUUUUGGAGUACUCGUGGUCG
Method in brief: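 The eight P1ex-region nucleotides of an intron in the knt kanamycin-resistance gene on pET-22b(+) were all randomised and the library put into E. coli BL21(DE3). Six replicate transformations were grown overnight at 37°C or 30°C on LB agar with or without 25 μg/mL kanamycin, together with 100 μg/mL carbenicillin, 50 μM IPTG and 0.2% rhamnose. Colonies were pooled and amplicon-sequenced on an Illumina HiSeq 2500. Fitness from DiMSum is the error-weighted combination of wild-type-normalised replicate fold changes, kanamycin over none.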

Sequence	self-splicing fitness (ln) (30 °C)	self-splicing fitness (ln) (37 °C)
ACUGAGCAAUAUUACGAUUC	-2.78 ± 0.5	-1.57 ± 0.31
ACUGAGCAAUAUUACGCACG	-2.17 ± 0.15	-1.11 ± 0.17
ACUGAGCAAUAUUACGCAGU	-2.36 ± 0.24	-1.35 ± 0.2
ACUGAGCAAUAUUACGCAUU	-2.71 ± 0.1	-1.29 ± 0.11
ACUGAGCAAUAUUACGCCCU	-1.87 ± 0.33	-1.05 ± 0.44
ACUGAGCAAUAUUACGCGCA	-3.04 ± 0.42	-1.66 ± 0.36
ACUGAGCAAUAUUACGGAGA	-3.46 ± 0.21	-3.08 ± 0.27
ACUGAGCAAUAUUACGGAUA	-3.08 ± 0.28	-1.77 ± 0.26
ACUGAGCAAUAUUACGGCAG	-1.75 ± 0.12	-0.311 ± 0.15
ACUGAGCAAUAUUACGGCCA	-2.43 ± 0.28	-2.07 ± 0.33
ACUGAGCAAUAUUACGGUAG	-3.12 ± 0.18	-1.03 ± 0.21
ACUGAGCAAUAUUACGGUCA	-3.09 ± 0.21	-1.51 ± 0.15
ACUGAGCAAUAUUACGGUUA	-2.56 ± 0.21	-1.9 ± 0.17
ACUGAGCAAUAUUACGUAAC	-4.25 ± 0.25	-3.36 ± 0.3
ACUGAGCAAUAUUACGUAAG	-2.02 ± 0.086	-0.834 ± 0.1
ACUGAGCAAUAUUACGUAGG	-2.14 ± 0.14	-1.27 ± 0.18
ACUGAGCAAUAUUACGUCAA	-3.09 ± 0.23	-2.31 ± 0.19
ACUGAGCAAUAUUACGUCGU	-2.87 ± 0.16	-1.96 ± 0.14
ACUGAGCAAUAUUACGUGCG	-3 ± 0.13	-1.28 ± 0.11
ACUUAGCAAUAUUACGAACA	-1.35 ± 0.2	-0.724 ± 0.19
ACUUAGCAAUAUUACGAAGG	-2.08 ± 0.12	-1.33 ± 0.17
ACUUAGCAAUAUUACGACGG	-0.755 ± 0.081	-0.0301 ± 0.11
ACUUAGCAAUAUUACGAGCU	-0.379 ± 0.099	-0.0037 ± 0.14
ACUUAGCAAUAUUACGAGUC	–	-3.01 ± 0.35

Sequence	self-splicing fitness (ln) (30 °C)	self-splicing fitness (ln) (37 °C)
ACUUAGCAAUAUUACGCAAG	-2.24 ± 0.17	-1.32 ± 0.14
ACUUAGCAAUAUUACGCAUA	-1.74 ± 0.12	-1.42 ± 0.14
ACUUAGCAAUAUUACGCCUG	-1.12 ± 0.18	-0.484 ± 0.19
ACUUAGCAAUAUUACGCUUA	-1.26 ± 0.15	-1.75 ± 0.21
ACUUAGCAAUAUUACGCUUC	-2.32 ± 0.19	-2.18 ± 0.45
ACUUAGCAAUAUUACGGAGG	-2.19 ± 0.13	-1.48 ± 0.16
ACUUAGCAAUAUUACGGGGG	-2.98 ± 0.23	-1.96 ± 0.21
ACUUAGCAAUAUUACGUAAC	-2.9 ± 0.12	-2.43 ± 0.2
ACUUAGCAAUAUUACGUACC	-2.17 ± 0.23	-1.06 ± 0.23
ACUUAGCAAUAUUACGUCUC	-2.31 ± 0.25	-3.34 ± 0.32
ACUUAGCAAUAUUACGUUAC	-3.55 ± 0.26	-2.55 ± 0.38
ACUUAGCAAUAUUACGUUAU	-3.66 ± 0.22	-1.31 ± 0.16
AGAAAGCAAUAUUACGAAAG	-3.93 ± 0.21	-1.94 ± 0.18
AGAAAGCAAUAUUACGAGAU	-3.45 ± 0.24	-1.99 ± 0.2
AGAAAGCAAUAUUACGAGGA	-3.15 ± 0.15	-2.71 ± 0.16
AGAAAGCAAUAUUACGAGUC	-3.82 ± 0.33	-1.57 ± 0.18
AGAAAGCAAUAUUACGCAAG	-1.66 ± 0.13	-1.32 ± 0.18
AGAAAGCAAUAUUACGCCGU	-0.929 ± 0.11	-0.341 ± 0.13
AGAAAGCAAUAUUACGCUGU	-2.34 ± 0.14	-1.98 ± 0.16
AGAAAGCAAUAUUACGGCAU	-0.587 ± 0.051	-0.525 ± 0.064
AGAAAGCAAUAUUACGGGUC	-3.05 ± 0.21	-3.35 ± 0.31
AGAAAGCAAUAUUACGGGUU	-2.85 ± 0.15	-1.61 ± 0.12
AGAAAGCAAUAUUACGGUCG	-0.278 ± 0.07	-0.0273 ± 0.092
AGAAAGCAAUAUUACGUACU	-0.412 ± 0.096	0.261 ± 0.11

Sequence	self-splicing fitness (ln) (30 °C)	self-splicing fitness (ln) (37 °C)
AGAAAGCAAUAUUACGUCCC	-0.156 ± 0.18	0.119 ± 0.25
AGAAAGCAAUAUUACGUCUA	-0.728 ± 0.091	-0.00176 ± 0.092
AGAAAGCAAUAUUACGUCUU	-1.77 ± 0.09	-0.678 ± 0.088
AGAAAGCAAUAUUACGUGGA	-2.47 ± 0.12	-2.28 ± 0.13
AGAAAGCAAUAUUACGUUCA	-0.142 ± 0.084	0.14 ± 0.12
AGAAAGCAAUAUUACGUUUU	-3.84 ± 0.17	-3.06 ± 0.2
AGACAGCAAUAUUACGACCU	0.0744 ± 0.084	-0.545 ± 0.093
AGACAGCAAUAUUACGACGG	-2.19 ± 0.14	-1.86 ± 0.13
AGACAGCAAUAUUACGACUA	-0.888 ± 0.092	-0.383 ± 0.088
AGACAGCAAUAUUACGAGGC	-3.34 ± 0.23	-2.82 ± 0.3
AGACAGCAAUAUUACGCAGU	-3.96 ± 0.2	-3.04 ± 0.27
AGACAGCAAUAUUACGCCCA	-0.00321 ± 0.2	0.432 ± 0.28
AGACAGCAAUAUUACGCCCU	-0.687 ± 0.083	0.0722 ± 0.1
AGACAGCAAUAUUACGCCGG	-2.95 ± 0.18	-1.67 ± 0.16
AGACAGCAAUAUUACGCGCG	-0.587 ± 0.074	0.222 ± 0.096
AGACAGCAAUAUUACGCUAU	-3.31 ± 0.18	-0.948 ± 0.12
AGACAGCAAUAUUACGCUGC	-3.72 ± 0.2	-2.64 ± 0.24
AGACAGCAAUAUUACGCUGG	-3.98 ± 0.31	-3.5 ± 0.3
AGACAGCAAUAUUACGGAAU	-3.47 ± 0.14	-2.29 ± 0.17
AGACAGCAAUAUUACGGACC	-0.551 ± 0.075	-0.201 ± 0.086
AGACAGCAAUAUUACGGAGG	-3.35 ± 0.18	-2.48 ± 0.23
AGACAGCAAUAUUACGGCAA	-1.37 ± 0.064	-0.634 ± 0.079
AGACAGCAAUAUUACGGCCC	-0.119 ± 0.2	-0.253 ± 0.25
AGACAGCAAUAUUACGGCGU	-0.937 ± 0.057	-0.314 ± 0.065

Sequence	self-splicing fitness (ln) (30 °C)	self-splicing fitness (ln) (37 °C)
AGACAGCAAUAUUACGGGAA	-2.68 ± 0.18	-1.38 ± 0.14
AGACAGCAAUAUUACGGGGU	-3.82 ± 0.17	-2.25 ± 0.15
AGACAGCAAUAUUACGGUUG	-1.85 ± 0.088	-1.87 ± 0.13
AGACAGCAAUAUUACGUUAC	-3.81 ± 0.19	-1.34 ± 0.17
AGACAGCAAUAUUACGUUUG	-3.34 ± 0.11	-1.22 ± 0.086
AGAGAGCAAUAUUACGAACU	-1.81 ± 0.2	-1.57 ± 0.2
AGAGAGCAAUAUUACGACUA	-2.42 ± 0.44	–
AGAGAGCAAUAUUACGAGAG	–	-2.3 ± 0.44
AGAGAGCAAUAUUACGGCCU	-0.408 ± 0.3	-2.58 ± 0.5
AGAGAGCAAUAUUACGGCGU	-2.48 ± 0.19	-2.7 ± 0.25
AGAGAGCAAUAUUACGGUCC	-2.21 ± 0.3	-0.974 ± 0.46
AGAGAGCAAUAUUACGGUCU	-3.2 ± 0.15	-2.71 ± 0.29
AGAGAGCAAUAUUACGGUGU	-3.59 ± 0.25	-2.97 ± 0.22
AGAGAGCAAUAUUACGUAUG	-4.21 ± 0.24	-3.33 ± 0.27
AGAGAGCAAUAUUACGUCGU	-3.77 ± 0.32	-1.78 ± 0.22
AGAGAGCAAUAUUACGUGUU	-3.21 ± 0.18	-3.64 ± 0.36
AGAGAGCAAUAUUACGUUUC	-2.27 ± 0.21	-1.41 ± 0.23
AGAUAGCAAUAUUACGAAUC	-1.46 ± 0.18	-1.06 ± 0.24
AGAUAGCAAUAUUACGACGC	-0.572 ± 0.16	0.997 ± 0.22
AGAUAGCAAUAUUACGACGG	-2.09 ± 0.2	-1.55 ± 0.25
AGAUAGCAAUAUUACGAGUG	-2.72 ± 0.15	-1.22 ± 0.14
AGAUAGCAAUAUUACGAUAA	-2.02 ± 0.11	-1.16 ± 0.11
AGAUAGCAAUAUUACGAUAG	-2.88 ± 0.21	-2.31 ± 0.18
AGAUAGCAAUAUUACGAUGU	-0.932 ± 0.079	-0.112 ± 0.086
